Test results as given in article PMC13433802, “Structure of the NAT10 acetyltransferase and mechanism of tRNA acetylation” (Nature Communications, 2026).

Columns and labels:
[1] = molecular target: T1, CtNAT10 (Chaetomium thermophilum NAT10; Kre33) (Thermochaetoides thermophila, UniProt G0S273); assay: differential scanning fluorimetry, SYPRO orange; type: binding; details: apo Tm 42.0 ± 0.3 °C, 5 mM MgCl2, Hepes pH 7.5, Tm with ligand, not a shift
T1 construct: codon-optimised synthetic gene; Sf9 (functional assays and 9B0I) or E. coli (9AYM, 9B0E)
T1 sequence (G0S273 1-1073): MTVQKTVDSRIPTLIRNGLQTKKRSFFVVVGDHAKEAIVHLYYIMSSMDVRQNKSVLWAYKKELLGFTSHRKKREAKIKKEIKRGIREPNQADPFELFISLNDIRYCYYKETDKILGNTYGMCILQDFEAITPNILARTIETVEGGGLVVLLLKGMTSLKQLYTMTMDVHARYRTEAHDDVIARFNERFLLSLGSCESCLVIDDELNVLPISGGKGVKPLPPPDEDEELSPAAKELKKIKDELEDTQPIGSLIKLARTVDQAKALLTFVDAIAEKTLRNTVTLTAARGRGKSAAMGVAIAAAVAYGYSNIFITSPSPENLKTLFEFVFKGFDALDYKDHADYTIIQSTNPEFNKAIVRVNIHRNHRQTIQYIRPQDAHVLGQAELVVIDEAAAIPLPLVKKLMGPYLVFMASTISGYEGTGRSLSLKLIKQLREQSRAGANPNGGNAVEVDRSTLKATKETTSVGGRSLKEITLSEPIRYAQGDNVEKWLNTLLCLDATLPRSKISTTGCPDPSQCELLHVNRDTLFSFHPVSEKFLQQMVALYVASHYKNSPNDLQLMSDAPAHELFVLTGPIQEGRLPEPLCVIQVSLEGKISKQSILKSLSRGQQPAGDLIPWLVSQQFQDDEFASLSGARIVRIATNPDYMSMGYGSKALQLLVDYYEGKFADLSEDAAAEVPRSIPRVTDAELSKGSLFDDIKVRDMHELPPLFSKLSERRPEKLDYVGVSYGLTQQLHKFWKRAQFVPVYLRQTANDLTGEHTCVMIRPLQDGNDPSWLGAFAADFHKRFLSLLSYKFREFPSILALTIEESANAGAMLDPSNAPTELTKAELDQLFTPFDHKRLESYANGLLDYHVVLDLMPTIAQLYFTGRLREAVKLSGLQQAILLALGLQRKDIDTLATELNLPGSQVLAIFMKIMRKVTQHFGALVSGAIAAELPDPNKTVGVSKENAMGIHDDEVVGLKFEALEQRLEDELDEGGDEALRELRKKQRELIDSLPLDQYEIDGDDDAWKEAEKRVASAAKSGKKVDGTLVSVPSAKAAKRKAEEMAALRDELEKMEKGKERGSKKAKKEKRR

[2] = molecular target: Chaetomium thermophilum NAT10 (CtNAT10), E. coli-produced recombinant (Chaetomium thermophilum); assay: mass photometry; 1 ul of 200 nM protein stock into 19 ul dilution buffer (10 nM); 300 mM NaCl, 25 mM Hepes-NaOH pH 7.5, 1 mM TCEP; room temperature
[3] = molecular target: Chaetomium thermophilum NAT10 (CtNAT10), Sf9-produced recombinant (Chaetomium thermophilum); assay: as above
CtNAT10 WT [4] = molecular target: T2, CtNAT10 WT (Chaetomium thermophilum, UniProt G0S273 1-1073); assay: EMSA; 0.5 mM ATP, 0.1 mM acetyl-CoA; 50 mM Hepes-KOH pH 7.6, 90 mM NaCl (Fig 1B) or 75 mM NaCl + 0.2 mg/ml BSA (Fig S4A), 12 mM KCl, 10 mM MgCl2, 1 mM DTT, 0.5 mM ATP, 0.1 mM acetyl-CoA; Fig 1B 15; details: protein: recombinant; tags: N-terminal 6xHis; chain copies: 2; tRNA fold
T2 sequence: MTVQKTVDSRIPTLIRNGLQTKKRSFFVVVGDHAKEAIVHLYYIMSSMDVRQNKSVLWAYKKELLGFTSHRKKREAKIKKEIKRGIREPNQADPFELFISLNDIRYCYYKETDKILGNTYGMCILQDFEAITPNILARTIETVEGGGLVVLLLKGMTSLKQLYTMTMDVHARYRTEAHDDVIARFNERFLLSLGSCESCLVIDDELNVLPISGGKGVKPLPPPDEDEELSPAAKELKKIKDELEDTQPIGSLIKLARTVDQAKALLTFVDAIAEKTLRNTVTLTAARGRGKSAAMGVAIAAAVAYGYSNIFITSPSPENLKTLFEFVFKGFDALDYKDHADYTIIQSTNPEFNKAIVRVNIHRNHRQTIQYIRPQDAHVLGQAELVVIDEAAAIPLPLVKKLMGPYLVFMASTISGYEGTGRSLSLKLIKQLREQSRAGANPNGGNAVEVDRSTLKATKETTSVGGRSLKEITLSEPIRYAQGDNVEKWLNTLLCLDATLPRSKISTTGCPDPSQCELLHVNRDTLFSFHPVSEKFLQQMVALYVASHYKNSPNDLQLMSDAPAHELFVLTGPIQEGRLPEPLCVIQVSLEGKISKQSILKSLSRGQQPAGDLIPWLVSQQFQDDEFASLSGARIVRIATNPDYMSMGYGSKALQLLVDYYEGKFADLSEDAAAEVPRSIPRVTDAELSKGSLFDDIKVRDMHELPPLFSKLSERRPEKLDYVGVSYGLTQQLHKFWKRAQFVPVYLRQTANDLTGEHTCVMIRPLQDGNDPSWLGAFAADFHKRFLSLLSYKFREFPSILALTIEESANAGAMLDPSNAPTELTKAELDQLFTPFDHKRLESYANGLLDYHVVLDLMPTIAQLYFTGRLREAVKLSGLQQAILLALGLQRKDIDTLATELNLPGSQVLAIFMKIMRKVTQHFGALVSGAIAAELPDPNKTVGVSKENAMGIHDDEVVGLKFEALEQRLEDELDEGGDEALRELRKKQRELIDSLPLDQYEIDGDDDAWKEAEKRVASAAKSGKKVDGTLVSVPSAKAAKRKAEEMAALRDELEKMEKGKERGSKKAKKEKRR

CtNAT10 WT [5] = molecular target: T2, CtNAT10 WT; assay: EMSA; no THUMPD1; 0.5 mM ATP, 0.1 mM acetyl-CoA; 50 mM Hepes-KOH pH 7.6, 90 mM NaCl (Fig 1B) or 75 mM NaCl + 0.2 mg/ml BSA (Fig S4A), 12 mM KCl, 10 mM MgCl2, 1 mM DTT, 0.5 mM ATP, 0.1 mM acetyl-CoA; Fig 1B 15; details: protein: recombinant; tags: N-terminal 6xHis; chain copies: 2; tRNA fold

Nc1ncnc2c1ncn2[C@@H]1O[C@H](COP(=O)(O)OP(=O)(O)OP(=O)(O)O)[C@@H](O)[C@H]1O [ATP]
Tm ([1]; ligand series 0.25-2500 μM): 53.8 ± 0.1 °C

CC(=O)SCCNC(=O)CCNC(=O)[C@H](O)C(C)(C)COP(=O)(O)OP(=O)(O)OC[C@H]1O[C@@H](n2cnc3c(N)ncnc32)[C@H](O)[C@@H]1OP(=O)(O)O [acetyl-CoA]
Tm ([1]; ligand series 0.25-2500 μM): 46.1 ± 0.1 °C

CC(C)(COP(=O)(O)OP(=O)(O)OC[C@H]1O[C@@H](n2cnc3c(N)ncnc32)[C@H](O)[C@@H]1OP(=O)(O)O)[C@@H](O)C(=O)NCCC(=O)NCCSCC(=O)Nc1ccn([C@@H]2O[C@H](CO)[C@@H](O)[C@H]2O)c(=O)n1 [cytidine-amide-CoA]
Tm ([1]; ligand series 0.20-2000 μM): 46.4 ± 0.1 °C

Chaetomium thermophilum NAT10 (CtNAT10), E. coli-produced recombinant (enzyme)
stoichiometry N [2]: 2

Chaetomium thermophilum NAT10 (CtNAT10), Sf9-produced recombinant (enzyme)
stoichiometry N [3]: 2

B1: ct-tRNALeu (synthetic) (structured_RNA)
RNA: GGCAAGAUGGCCGAGCGGUCCAAGGCGCCAGGUUCAGGUCCUGGUCUCCGCAAGGGGGCGUGAGUUCGAAUCUCACUCUUGUCA
binding result (CtNAT10 WT [4]): binds

B2: ct-tRNASer (synthetic) (structured_RNA)
RNA: GACAACUUGGCCGAGUGGUUAAGGCGACAGACUUGAAAUCUGUUGGGUUCGCCCUCACAGGUUCGAAUCCUGUAGUUGUCG
binding result (CtNAT10 WT [4]): binds

B3: CttRNAAla (IVT) (structured_RNA)
RNA: GGGCGUGUAGCUCAGUUGGUAGAGCGUUCGCUUAGCAUGCGAGAGGUCCUGGGUUCGAUUCCCAGCCCGUCCA
binding result (CtNAT10 WT [5]): binds
